Measurements from the supplement of paper PMC9170038.

Test system: MS2 coat protein
Test: apparent KD of MS2 coat protein; higher = weaker reporter binding
Settings: Eterna round: R107
Method in brief: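 Illumina sequencing clusters served as templates for on-chip transcription of the designed RNA switches. SNAP-549-labelled MS2 coat protein was then titrated in twofold steps from 0.7 or 1.5 nM to 3 µM, allowing 0.8–1.5 h per step at first and 10–20 min per step later. The buffer held 100 mM Tris-HCl pH 7.5, 80 mM KCl and 4 mM MgCl2, without or with constant ligand. Apparent KD is the median per design of normalised cluster binding-curve fits.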

[1] = input ligand: theophylline 20 uM
[2] = input ligand: theophylline 2 mM
[3] = input ligand: tryptophan 2.4 mM

Sequence	apparent KD of MS2 coat protein (input ligand: arginine 13.2 mM) [nM]	apparent KD of MS2 coat protein [1] [nM]	apparent KD of MS2 coat protein [2] [nM]	apparent KD of MS2 coat protein [3] [nM]	apparent KD of MS2 coat protein (input ligand: none) [nM]
UCGGUGCUCUACAUGAGGAUCACCCAUGUCCGAGGACCGGUACGGCCGCCACUCGCAAUCAAACAGACGUGGGCCAACUUUGCGU [Tiribeesqu]	11	12.1	11	–	–
AAACAUUGCUCAGAUACCAGACAUGAGGAUCACCCAUGUACCAAGGUAACCGAAAGGCAUGUCCCUUGGCAGCUGAGCAAUGAAA [MAT - Exclusion Theophlline B - Mod of Eli - D15]	13.5	17.4	–	13	–
GGGCGCGUGGACUGGCGUGCUCCGCUCCGUCGAGGACCGGUACGGCCGCCACUCGACAUGAGGAUCACCCAUGUGUGCGCUCGCG [#1 Exclusion - Tryptophan A Attempt #18 (HarryS)]	14.5	194	40.4	7.36	21
GGGCGCGAGACGGCCGCCACUACACAUGAGGAUCACCCAUGUAUGGCAACAUGAGGAUCUGCCAUUAGGACCGGGUCAGGGCCCA	29.3	53.4	41.8	38.5	31.2
AAAAGAGGUGGAAGGAGCGGGAGACAUGAGGAUCACCCAUGUGAUGUUACGAAAGGUUCAGCCCAGGUAGGUCGCCAUGUCGAAA [zczzmullin]	36.6	268	175	34.7	46.8
AAUUAAUUAACCGAUACCAGCCAACCAAAACAUGAGGAUCACCCAUGUAAGAAGAAGGGUGGCCCUUGGCAGCGGUUAAUUAAUU	31.4	16.7	–	30.5	–
GGCAAGCGAGACAUGAGGAUCACCCAUGUUCGAGGACCGGUACGGCCGCCACUCGGUGGACUCAUGGUAAAGCCGGUGAGCCAAA [AK 1 SS Trypt (A)]	27.4	44.8	38	–	–
AGGAACAUGAGGAUCACCCAUGUAAGCGAUACCAGUGAUAUGUUGCGCCCUUGGCAGCGCAAGUGUGUGUGAAAGAUGUAAGAUU [Eclusion - Theophylline A / A]	14.6	29.3	–	16.7	–
AUAUAUACAUGAGGAUCACCCAUGUUAUUUCGAGGACCGGUACGGCCGCCACUCGAUAGAGUAGAAGUAACAUUUGUUAGAUGUA [JR_SSTryptoA_Sub011]	19.7	28.3	22	–	–
AAUAACAUGAGGAUCACCCAUGUAAAAGAUACCAGAGUGAUGAUCCUCCCUUGGCAGCUUAAUAACGCUAUUGGAAACAAUAGCG [Mat - Same State Theophlline A - Mod of Eli - D7]	34.9	158	–	59	–
CCUAUCCAGUCGGCCGCCACUGACCAUUUGGAACAGUGGGUGAAAACAUGAGGAUCACCCAUGUACAGGACCGGGACUGUAUAGG [Ex Tryptophan B 20]	14.7	15.7	13.9	–	–
ACGACGCAUAGUGAUACCAGUAGAACAUGAGGAUCACCCAUGUCUGUGACGCACAAAUUCUGCCCUUGGCAGCACUAUGCGUCAG [SSTheo B #6]	12.6	18.1	–	12.1	–
GUAGCGACGGCGGCCGCCACUCGCACGUGAGGGUAGACCAACCUUCACAUGAGGAUCACCCAUGUGAGGACCGGGCUGUCGCUAC [#15 Exclusion Tryptophan B]	17	30.4	25.4	46.4	23.8
ACAUGAGGAUCACCCAUGUAGCGUAGGGAAGGAGCGGAAUAGAGUCCAGGUAGGUCGCCCAUAUGAUGAUCUCACUUAUUAUCGA [#13 Same State - Arginine A]	39.1	36.7	40.8	22.9	21.1
CGUAUCGUAACUGAUACCAGUGUACUGACAUGAGGAUCACCCAUGUUGGGUUUUGUUGUACACCCUUGGCAGCAGAAUCGAUACG [AstrosExyTheB#6]	52.1	68.6	–	62.9	–
GCCAUCGGCGAAAGCCGAUGGUAUACAGAAGGAGCGCACGAAAGUGCAGGUAGGUCGCUGAACAUGAGGAUCACCCAUGUAAUAA [#29 Same State - Arginine A]	19.6	24.9	22.9	19.4	20.2
UAUUUUGUGAUGGAUACCAGCAGAGAAAACGUUUAUCCUAACAUGAGGAUCACCCAUGUAUGCCCUUGGCAGCUGUUGUGGGAUA [8.Q]	24.9	42	–	29.9	–
AACAUGAGGAUCACCCAUGUAAAAUGGGAUACCAGAGACGAAAGUCUCCCUUGGCAGCCCACUGCCUCCUUUACGAAAGUAGAGG [Theophylline A 15]	29.8	32.5	–	38.3	–
CUGGACAUGAGGAUCACCCAUGUAAAUCCUCGAGGACCGGUACGGCCGCCACUCGAACGAGUGGCACGCGAGUGCGCACUCGCGU [aLa]	26.9	45.6	36.2	33	29.8
